# Data published in US20210380703A1 (RIGEL PHARMACEUTICALS, published 2021).
# Target: ACVR2A on primary human myotubes (human, UniProt P27037 20-513)
# Assay: cell-based or functional assay
# Sequence of ACVR2A on primary human myotubes (P27037 20-513): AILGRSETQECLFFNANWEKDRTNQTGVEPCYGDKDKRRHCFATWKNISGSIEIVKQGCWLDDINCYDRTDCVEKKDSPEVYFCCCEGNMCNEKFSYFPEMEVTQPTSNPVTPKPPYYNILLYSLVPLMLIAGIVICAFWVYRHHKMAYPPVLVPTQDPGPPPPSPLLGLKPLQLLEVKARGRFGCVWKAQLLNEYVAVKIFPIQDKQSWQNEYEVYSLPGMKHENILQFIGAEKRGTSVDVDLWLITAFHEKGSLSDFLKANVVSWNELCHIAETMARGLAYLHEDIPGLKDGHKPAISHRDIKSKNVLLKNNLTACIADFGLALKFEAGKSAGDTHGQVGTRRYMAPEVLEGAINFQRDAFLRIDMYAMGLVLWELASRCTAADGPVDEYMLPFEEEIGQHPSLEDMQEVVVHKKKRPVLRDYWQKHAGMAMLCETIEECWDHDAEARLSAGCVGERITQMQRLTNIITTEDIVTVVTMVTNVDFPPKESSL
row,Binder,Phospho-SMAD3 Human Skeletal Muscle GDF8
1,"374_C06 (antibody, V domains shown) VH: EVQLLESGGGLVQPGGSLRLSCAASGFTFDDYSMNWVRQAPGKGLEWVSSINYNSGYKGYADSVKGRFTISRDNSKNTLYLQMNSLRAEDTAVYYCARSANWHDTALDYWGQGTLVTVSS VL: DIQMTQSPSSLSASVGDRVTITCRASQSILTYVNWYQQKPGKAPKLLIYAATSRASGVPSRFSGSGSGTDFTLTISSLQPEDFATYYCQQSYNSPLTFGGGTKVEIK",0.0138
2,"366_B12 (antibody, V domains shown) VH: EVQLLESGGGLVQPGGSLRLSCAASGFTFSSYSMNWVRQAPGKGLEWVAGINYNSGYKGYADSVKGRFTISRDNSKNTLYLQMNSLRAEDTAVYYCARSANWHDTALDYWGQGTLVTVSS VL: DIQMTQSPSSLSASVGDRVTITCRASQSILTYVNWYQQKPGKAPKLLIYAATSRASGVPSRFSGSGSGTDFTLTISSLQPEDFATYYCQQSYDNPLTFGGGTKVEIK",0.0392
3,"367_H11 (antibody, V domains shown) VH: EVQLLESGGGLVQPGGSLRLSCAASGFTFSSYGMNWVRQAPGKGLEWVAGINYNGGYKGYADSVKGRFTISRDNSKNTLYLQMNSLRAEDTAVYYCARSANWHDTALDYWGQGTLVTVSS VL: DIQMTQSPSSLSASVGDRVTITCRASQSIISYVNWYQQKPGKAPKLVIYAATSRASGVPSRFSGSGSGTDFTLTISSLQPEDFATYYCQQSYNSPLTFGGGTKVEIK",0.0703
4,"374_B04 (antibody, V domains shown) VH: EVQLLESGGGLVQPGGSLRLSCAASGFTFSSYSMNWVRQAPGKGLEWVSNINYNSGYTGYADSVKGRFTISRDNSKNTLYLQMNSLRAEDTAVYYCARSANWHDTALDYWGQGTLVTVSS VL: DIQMTQSPSSLSASVGDRVTITCRASQSIVSYLNWYQQKPGKAPKLLIYAVTSRASGVPSRFSGSGSGTDFTLTISSLQPEDFATYYCQQSYESPLTFGGGTKVEIK",0.0093
5,"372_F09 (antibody, V domains shown) VH: EVQLLESGGGLVQPGGSLRLSCAASGFTFDSYSMNWVRQAPGKGLEWVANINYNSGYKGYADSVKGRFTISRDNSKNTLYLQMNSLRAEDTAVYYCARSANWHDTALDYWGQGTLVTVSS VL: DIQMTQSPSSLSASVGDRVTITCRASQSILTYLNWYQQKPGKAPKLVIYAATSLASGVPSRFSGSGSGTDFTLTISSLQPEDFATYYCQQSYSSPLTFGGGTKVEIK",0.018
6,"367_H06 (antibody, V domains shown) VH: EVQLLESGGGLVQPGGSLRLSCAASGFTFSSYGMNWVRQAPGKGLEWVSNINYNGGYTGYADSVKGRFTISRDNSKNTLYLQMNSLRAEDTAVYYCARSANWHDTHLDYWGQGTLVTVSS VL: DIQMTQSPSSLSASVGDRVTITCRASQSIITYLNWYQQKPGKAPKLLIYAATSRASGVPSRFSGSGSGTDFTLTISSLQPEDFATYYCQQSYDTPLTFGGGTKVEIK",0.108
7,"369_G01 (antibody, V domains shown) VH: EVQLLESGGGLVQPGGSLRLSCAASGFTFSSYSMNWVRQAPGKGLEWVSNINYNSGYKSYADSVKGRFTISRDNSKNTLYLQMNSLRAEDTAVYYCARSANWHDTALDYWGQGTLVTVSS VL: DIQMTQSPSSLSASVGDRVTITCRASQSILSYVNWYQQKPGKAPKLLIYAATSRASGVPSRFSGSGSGTDFTLTISSLQPEDFATYYCQQSYSSPLTFGGGTKVEIK",0.0116
8,"373_B04 (antibody, V domains shown) VH: EVQLLESGGGLVQPGGSLRLSCAASGFTFSSYGMNWVRQAPGKGLEWVAGINYNSGYKGYADSVKGRFTISRDNSKNTLYLQMNSLRAEDTAVYYCARSANWHDTALDYWGQGTLVTVSS VL: DIQMTQSPSSLSASVGDRVTITCRASQSILTYLNWYQQKPGKAPKLLIYAATSRASGVPSRFSGSGSGTDFTLTISSLQPEDFATYYCQQSYETPLTFGGGTKVEIK",0.0093
9,"370_H01 (antibody, V domains shown) VH: EVQLLESGGGLVQPGGSLRLSCAASGFTFSSYSMNWVRQAPGKGLEWVSGINYNSGYKGYADSVKGRFTISRDNSKNTLYLQMNSLRAEDTAVYYCARSANWHDTALDYWGQGTLVTVSS VL: DIQMTQSPSSLSASVGDRVTITCRASQSIISYLNWYQQKPGKAPKLLIYAVTSRASGVPSRFSGSGSGTDFTLTISSLQPEDFATYYCQQSYDTPLTFGGGTKVEIK",0.0093

# Further lines, results first:
row,Phospho-SMAD3 Human Skeletal Muscle GDF8,Binder
1,0.903,"365_A12 (antibody, V domains shown) VH: EVQLLESGGGLVQPGGSLRLSCAASGFTFSSYGMHWVRQAPGKGLEWVAGINYNGGYTSYADSVKGRFTISRDNSKNTLYLQMNSLRAEDTAVYYCAKSANWHDTHLDYWGQGTLVTVSS VL: DIQMTQSPSSLSASVGDRVTITCRASQSILTYVNWYQQKPGKAPKLLIYAATSRHSGVPSRFSGSGSGTDFTLTISSLQPEDFATYYCQQSYENPLTFGGGTKVEIK"
2,0.0132,"374_G05 (antibody, V domains shown) VH: EVQLLESGGGLVQPGGSLRLSCAASGFTFSSYSMNWVRQAPGKGLEWVSNINYNSGYKGYADSVKGRFTISRDNSKNTLYLQMNSLRAEDTAVYYCARGATWHDTHLDYWGQGTLVTVSS VL: DIQMTQSPSSLSASVGDRVTITCRASQSIISYLNWYQQKPGKAPKLLIYAATSRASGVPSRFSGSGSGTDFTLTISSLQPEDFATYYCQQSYDLPLTFGGGTKVEIK"
3,0.0646,"372_F03 (antibody, V domains shown) VH: EVQLLESGGGLVQPGGSLRLSCAASGFTFSSYGMNWVRQAPGKGLEWVAGINYNGGYTSYADSVKGRFTISRDNSKNTLYLQMNSLRAEDTAVYYCARSANWHDTALDYWGQGTLVTVSS VL: DIQMTQSPSSLSASVGDRVTITCRASQSILSYLNWYQQKPGKAPKLVIYAATSRASGVPSRFSGSGSGTDFTLTISSLQPEDFATYYCQQSYDTPLTFGGGTKVEIK"
4,0.0402,"371_B07 (antibody, V domains shown) VH: EVQLLESGGGLVQPGGSLRLSCAASGFTFDSYSMNWVRQAPGKGLEWVAGINYNGGYTSYADSVKGRFTISRDNSKNTLYLQMNSLRAEDTAVYYCARSANWHDTALDYWGQGTLVTVSS VL: DIQMTQSPSSLSASVGDRVTITCRASQSILTYVNWYQQKPGKAPKLLIYAATSRASGVPSRFSGSGSGTDFTLTISSLQPEDFATYYCQQSYELPLTFGGGTKVEIK"
5,0.585,"374_C08 (antibody, V domains shown) VH: EVQLLESGGGLVQPGGSLRLSCAASGFTFDSYGMNWVRQAPGKGLEWVSGINYNSGYKSYADSVKGRFTISRDNSKNTLYLQMNSLRAEDTAVYYCARSATWHDTALDYWGQGTLVTVSS VL: DIQMTQSPSSLSASVGDRVTITCRASQSILSYVNWYQQKPGKAPKLLIYAVTSRASGVPSRFSGSGSGTDFTLTISSLQPEDFATYYCQQSYDSPLTFGGGTKVEIK"
6,0.341,"365_E02 (antibody, V domains shown) VH: EVQLLESGGGLVQPGGSLRLSCAASGFTFSSYSMNWVRQAPGKGLEWVANINYNGGYTSYADSVKGRFTISRDNSKNTLYLQMNSLRAEDTAVYYCAKSATWHDTHLDYWGQGTLVTVSS VL: DIQMTQSPSSLSASVGDRVTITCRASQSIISYLNWYQQKPGKAPKLLIYAATSRASGVPSRFSGSGSGTDFTLTISSLQPEDFATYYCQQSYENPLTFGGGTKVEIK"
7,0.0082,"370_C05 (antibody, V domains shown) VH: EVQLLESGGGLVQPGGSLRLSCAASGFTFSSYSMNWVRQAPGKGLEWVAGINYNSGYTGYADSVKGRFTISRDNSKNTLYLQMNSLRAEDTAVYYCARSANWHDTALDYWGQGTLVTVSS VL: DIQMTQSPSSLSASVGDRVTITCRASQSILSYVNWYQQKPGKAPKLVIYAATSRASGVPSRFSGSGSGTDFTLTISSLQPEDFATYYCQQSYNSPLTFGGGTKVEIK"
8,0.0582,"374_C10 (antibody, V domains shown) VH: EVQLLESGGGLVQPGGSLRLSCAASGFTFSSYSMNWVRQAPGKGLEWVSSINYNGGYKGYADSVKGRFTISRDNSKNTLYLQMNSLRAEDTAVYYCARGATWHDTHLDYWGQGTLVTVSS VL: DIQMTQSPSSLSASVGDRVTITCRASQSIVTYLNWYQQKPGKAPKLLIYAATSLASGVPSRFSGSGSGTDFTLTISSLQPEDFATYYCQQSYNTPLTFGGGTKVEIK"
9,0.23,"374_D08 (antibody, V domains shown) VH: EVQLLESGGGLVQPGGSLRLSCAASGFTFDSYGMNWVRQAPGKGLEWVSGINYNSGYTGYADSVKGRFTISRDNSKNTLYLQMNSLRAEDTAVYYCARSANWHDTHLDYWGQGTLVTVSS VL: DIQMTQSPSSLSASVGDRVTITCRASQSILTYLNWYQQKPGKAPKLLIYAATSRHSGVPSRFSGSGSGTDFTLTISSLQPEDFATYYCQQSYESPLTFGGGTKVEIK"
10,0.0068,"369_H06 (antibody, V domains shown) VH: EVQLLESGGGLVQPGGSLRLSCAASGFTFSSYGMNWVRQAPGKGLEWVANINYNGGYKSYADSVKGRFTISRDNSKNTLYLQMNSLRAEDTAVYYCARSANWHDTALDYWGQGTLVTVSS VL: DIQMTQSPSSLSASVGDRVTITCRASQSIVSYVNWYQQKPGKAPKLLIYAATSRASGVPSRFSGSGSGTDFTLTISSLQPEDFATYYCQQSYDTPLTFGGGTKVEIK"
11,0.0193,"372_A04 (antibody, V domains shown) VH: EVQLLESGGGLVQPGGSLRLSCAASGFTFDSYSMNWVRQAPGKGLEWVSGINYNSGYTSYADSVKGRFTISRDNSKNTLYLQMNSLRAEDTAVYYCARSANWHDTALDYWGQGTLVTVSS VL: DIQMTQSPSSLSASVGDRVTITCRASQSILTYLNWYQQKPGKAPKLVIYAATSRASGVPSRFSGSGSGTDFTLTISSLQPEDFATYYCQQSYETPLTFGGGTKVEIK"
12,0.0632,"370_A12 (antibody, V domains shown) VH: EVQLLESGGGLVQPGGSLRLSCAASGFTFSSYGMNWVRQAPGKGLEWVAGINYNGGYTSYADSVKGRFTISRDNSKNTLYLQMNSLRAEDTAVYYCARSANWHDTALDYWGQGTLVTVSS VL: DIQMTQSPSSLSASVGDRVTITCRASQSILTYLNWYQQKPGKAPKLLIYAATSLASGVPSRFSGSGSGTDFTLTISSLQPEDFATYYCQQSYDSPLTFGGGTKVEIK"
